In this assay the target is desmoplakin (DP), endogenous (human (endogenous in HEK 293 and SCC9)) (UniProt P15924). Put plainly: proximity ligation.

Our source for the PLA fluorescent dots, fold over negative control antibody pairings values is article PMC4347645.

Chain of GSK3, endogenous in SCC9 cells (P49841 whole entry): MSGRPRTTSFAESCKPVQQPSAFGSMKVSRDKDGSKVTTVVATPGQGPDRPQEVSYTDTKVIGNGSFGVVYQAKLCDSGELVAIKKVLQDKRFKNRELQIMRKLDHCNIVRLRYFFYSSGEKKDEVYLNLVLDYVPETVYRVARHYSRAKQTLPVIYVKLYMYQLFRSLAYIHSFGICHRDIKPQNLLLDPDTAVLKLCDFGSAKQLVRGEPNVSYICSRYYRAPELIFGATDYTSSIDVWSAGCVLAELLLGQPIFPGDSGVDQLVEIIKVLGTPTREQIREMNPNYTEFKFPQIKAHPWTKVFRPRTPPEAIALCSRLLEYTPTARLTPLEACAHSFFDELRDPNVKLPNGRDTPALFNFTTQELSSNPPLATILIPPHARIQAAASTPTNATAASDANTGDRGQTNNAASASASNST
Chain of desmoplakin (DP), endogenous (human (endogenous in HEK 293 and SCC9)) (P15924 whole entry): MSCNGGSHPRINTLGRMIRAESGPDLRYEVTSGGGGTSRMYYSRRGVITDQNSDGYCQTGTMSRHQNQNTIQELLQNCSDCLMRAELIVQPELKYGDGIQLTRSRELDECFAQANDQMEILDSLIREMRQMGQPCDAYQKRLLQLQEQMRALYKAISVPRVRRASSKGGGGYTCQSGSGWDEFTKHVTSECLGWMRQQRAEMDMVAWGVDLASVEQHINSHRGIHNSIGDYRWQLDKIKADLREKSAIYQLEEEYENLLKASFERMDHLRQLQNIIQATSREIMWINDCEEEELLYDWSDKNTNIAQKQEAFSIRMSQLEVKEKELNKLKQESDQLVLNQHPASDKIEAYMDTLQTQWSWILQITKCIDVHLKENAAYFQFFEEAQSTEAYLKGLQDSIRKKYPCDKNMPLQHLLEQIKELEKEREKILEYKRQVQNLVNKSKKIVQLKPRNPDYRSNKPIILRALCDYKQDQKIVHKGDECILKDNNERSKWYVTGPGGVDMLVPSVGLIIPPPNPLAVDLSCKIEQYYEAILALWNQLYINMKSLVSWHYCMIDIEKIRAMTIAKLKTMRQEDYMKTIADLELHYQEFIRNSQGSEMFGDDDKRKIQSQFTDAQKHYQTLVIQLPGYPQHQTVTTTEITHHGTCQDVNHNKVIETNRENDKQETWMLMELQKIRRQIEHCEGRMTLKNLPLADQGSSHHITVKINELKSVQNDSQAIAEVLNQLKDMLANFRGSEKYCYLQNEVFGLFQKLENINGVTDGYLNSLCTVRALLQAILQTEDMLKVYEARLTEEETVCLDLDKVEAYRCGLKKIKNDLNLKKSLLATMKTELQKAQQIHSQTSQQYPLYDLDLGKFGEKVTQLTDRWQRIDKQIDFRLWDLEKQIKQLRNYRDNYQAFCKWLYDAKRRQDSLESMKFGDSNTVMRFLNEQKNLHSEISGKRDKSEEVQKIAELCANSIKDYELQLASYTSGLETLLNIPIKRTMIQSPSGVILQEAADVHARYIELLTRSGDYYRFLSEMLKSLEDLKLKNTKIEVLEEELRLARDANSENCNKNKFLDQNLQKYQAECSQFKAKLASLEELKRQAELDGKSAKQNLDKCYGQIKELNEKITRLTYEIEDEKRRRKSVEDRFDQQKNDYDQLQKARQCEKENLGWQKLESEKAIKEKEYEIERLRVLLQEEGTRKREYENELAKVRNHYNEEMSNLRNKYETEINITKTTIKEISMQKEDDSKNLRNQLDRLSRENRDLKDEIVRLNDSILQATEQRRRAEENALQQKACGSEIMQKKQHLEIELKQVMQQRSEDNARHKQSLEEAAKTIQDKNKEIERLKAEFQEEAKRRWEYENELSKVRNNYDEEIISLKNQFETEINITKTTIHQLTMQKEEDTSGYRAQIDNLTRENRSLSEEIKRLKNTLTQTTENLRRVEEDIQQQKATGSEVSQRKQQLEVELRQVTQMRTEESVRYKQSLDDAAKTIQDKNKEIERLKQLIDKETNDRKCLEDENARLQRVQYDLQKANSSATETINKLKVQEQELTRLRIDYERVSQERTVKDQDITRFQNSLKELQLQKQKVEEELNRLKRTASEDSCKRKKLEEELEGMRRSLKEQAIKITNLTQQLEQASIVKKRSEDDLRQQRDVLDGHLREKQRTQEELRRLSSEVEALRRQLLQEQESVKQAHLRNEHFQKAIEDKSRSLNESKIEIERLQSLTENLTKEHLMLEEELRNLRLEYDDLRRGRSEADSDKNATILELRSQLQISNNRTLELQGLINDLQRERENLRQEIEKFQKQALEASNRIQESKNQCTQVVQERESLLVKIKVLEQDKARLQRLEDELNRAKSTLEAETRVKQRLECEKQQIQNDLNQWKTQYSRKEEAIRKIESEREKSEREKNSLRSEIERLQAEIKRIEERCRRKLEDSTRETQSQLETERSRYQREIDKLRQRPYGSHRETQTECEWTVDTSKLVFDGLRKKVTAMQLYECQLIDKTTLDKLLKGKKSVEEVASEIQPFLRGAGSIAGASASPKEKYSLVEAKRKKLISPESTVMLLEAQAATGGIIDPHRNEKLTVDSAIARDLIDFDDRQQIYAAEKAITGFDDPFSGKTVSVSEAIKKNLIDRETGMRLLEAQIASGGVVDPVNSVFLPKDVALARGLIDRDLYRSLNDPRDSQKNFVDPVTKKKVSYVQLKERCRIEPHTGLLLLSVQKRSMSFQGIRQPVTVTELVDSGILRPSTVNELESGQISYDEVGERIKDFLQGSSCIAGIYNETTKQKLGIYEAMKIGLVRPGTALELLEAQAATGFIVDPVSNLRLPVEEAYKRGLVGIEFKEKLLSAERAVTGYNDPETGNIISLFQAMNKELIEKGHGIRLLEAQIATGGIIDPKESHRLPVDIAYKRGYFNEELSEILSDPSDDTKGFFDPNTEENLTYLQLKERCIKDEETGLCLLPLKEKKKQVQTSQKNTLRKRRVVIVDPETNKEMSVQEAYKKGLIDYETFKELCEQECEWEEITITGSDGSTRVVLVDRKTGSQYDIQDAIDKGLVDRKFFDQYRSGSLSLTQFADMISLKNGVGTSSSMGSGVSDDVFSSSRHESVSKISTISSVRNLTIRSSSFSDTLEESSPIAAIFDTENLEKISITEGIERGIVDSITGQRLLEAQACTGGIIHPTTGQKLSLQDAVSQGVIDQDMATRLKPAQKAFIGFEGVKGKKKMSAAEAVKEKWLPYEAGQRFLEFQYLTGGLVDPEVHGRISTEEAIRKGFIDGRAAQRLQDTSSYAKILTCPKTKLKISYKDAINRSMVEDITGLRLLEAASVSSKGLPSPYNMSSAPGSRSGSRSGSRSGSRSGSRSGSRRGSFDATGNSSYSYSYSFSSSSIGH

The substance “GSK3, endogenous in SCC9 cells (from UniProt P49841 1-420) (enzyme)” had a PLA fluorescent dots, fold over negative control antibody pairings of 20 fold.
